According to article PMC3139177:

Biological target: Recombinant platelet-derived growth factor-BB (UniProt P01127)
Assay: SPR

Sequence of UniProt P01127 (P01127 82-190): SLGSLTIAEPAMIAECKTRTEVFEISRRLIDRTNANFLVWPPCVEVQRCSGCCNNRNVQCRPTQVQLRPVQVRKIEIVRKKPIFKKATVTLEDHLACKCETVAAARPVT

Row | Kd | Substance
1 | 9 nM | Recombinant fibronectin type III repeats 13–14 (domain or fragment)
2 | 141 nM | Recombinant fibronectin variable domain (domain or fragment)
3 | 103 nM | Recombinant fibronectin type III repeat 1 (domain or fragment)
